We go through one molecule from paper PMC3876286 (ACS chemical biology, 2013).

For this series, the system named is r(CUG)12. The experiment in a line: SPR binding to r.

B1: muscleblind-like 1 protein (protein, UniProt Q9NR56 1-388, looked up)
Muscleblind-like protein 1: MAVSVTPIRDTKWLTLEVCREFQRGTCSRPDTECKFAHPSKSCQVENGRVIACFDSLKGRCSRENCKYLHPPPHLKTQLEINGRNNLIQQKNMAMLAQQMQLANAMMPGAPLQPVPMFSVAPSLATNASAAAFNPYLGPVSPSLVPAEILPTAPMLVTGNPGVPVPAAAAAAAQKLMRTDRLEVCREYQRGNCNRGENDCRFAHPADSTMIDTNDNTVTVCMDYIKGRCSREKCKYFHPPAHLQAKIKAAQYQVNQAAAAQAAATAAAMTQSAVKSLKRPLEATFDLGIPQAVLPPLPKRPALEKTNGATAVFNTGIFQYQQALANMQLQQHTAFLPPVPMVHGATPATVSAATTSATSVPFAATATANQIPIISAEHLTSHKYVTQM
Take B1: the “koff (1)” value came to 0.00203 s⁻¹ and the “kon (1)” value amounted to 3280 M⁻¹ s⁻¹. For the same molecule, the Kd (read-out: Kobs (1)) came out at 619 nM.
